For assay [1], the target named is biotinylated PTRAMP-CSS heterodimer: PfPTRAMP (42-309) with C-terminal Avitag, with PfCSS (20-290) (Plasmodium falciparum). Briefly: BLI; biotinylated PfPTRAMP or PTRAMP-CSS immobilised on High Precision Streptavidin (SAX) biosensors; twofold dilution series of anti-PfPTRAMP nanobody; 25 °C; kinetics buffer (PBS pH 7.4, 0.1% BSA, 0.02% Tween-20); 1:1 model; mean of two independent experiments. For orientation: BLI is a label-free optical method that tracks binding on a fibre tip over time.

Assay [2] has as its target PfPTRAMP (42-309) with a C-terminal Avitag, biotinylated (Plasmodium falciparum). Described as above.

Broadly, the Kd is the concentration at which binding is half-saturated. Read a low Kd as tighter binding. Usually koff stands for a measure of how fast the partners let go of each other. For orientation: kon means the rate constant with which the complex forms.

B1: anti-PfPTRAMP nanobody H8 (VHH)
VHH: QVQLQESGGGLVQPGGSLRLSCAASGFTFSSYWMYWVRQAPGKGLEWVSAINTGGGSTAYADSVKGRFTISRDNAKNTLYLQMNSLKSDDTAVYYCVKARGSSWSDRVFDYWGQGTQVTVSS
Consider B1, for which, in assay [1], the Kd worked out at 410 nM, the koff is 0.25 s⁻¹ and the kon is 790000 M⁻¹ s⁻¹. Also, in assay [2], the Kd was 400 nM, the koff came to 0.25 s⁻¹ and the kon came to 620000 M⁻¹ s⁻¹.

B2: anti-PfPTRAMP nanobody H10 (VHH)
VHH: QVQLQESGGGLVQPGGSLRLSCAASGFTFDNYWMYWVRQAPGKGLEWVSAINTVGSHTYYADSVKGRFTISRDNAKNTLYLQMNSLKSEDTAVYYCAKGPWGFGTSGWGEMDYWGKGTQVTVSS
In assay [1], B2 displayed a Kd of 390 nM, a koff of 0.077 s⁻¹ and a kon of 200000 M⁻¹ s⁻¹. In assay [2], this molecule came in with a Kd of 530 nM, a koff of 0.088 s⁻¹ and a kon of 170000 M⁻¹ s⁻¹.

For the origin of these results see PMC9712106.
